Source: paper PMC10239980, “A new portable toluidine blue/aptamer complex-on-polyethyleneimine-coated gold nanoparticles-based sensor for label-free electrochemical detection of alpha-fetoprotein”

Biological target: T1, Alpha-fetoprotein (AFP) (UniProt P02771 19-609)
T1 sequence: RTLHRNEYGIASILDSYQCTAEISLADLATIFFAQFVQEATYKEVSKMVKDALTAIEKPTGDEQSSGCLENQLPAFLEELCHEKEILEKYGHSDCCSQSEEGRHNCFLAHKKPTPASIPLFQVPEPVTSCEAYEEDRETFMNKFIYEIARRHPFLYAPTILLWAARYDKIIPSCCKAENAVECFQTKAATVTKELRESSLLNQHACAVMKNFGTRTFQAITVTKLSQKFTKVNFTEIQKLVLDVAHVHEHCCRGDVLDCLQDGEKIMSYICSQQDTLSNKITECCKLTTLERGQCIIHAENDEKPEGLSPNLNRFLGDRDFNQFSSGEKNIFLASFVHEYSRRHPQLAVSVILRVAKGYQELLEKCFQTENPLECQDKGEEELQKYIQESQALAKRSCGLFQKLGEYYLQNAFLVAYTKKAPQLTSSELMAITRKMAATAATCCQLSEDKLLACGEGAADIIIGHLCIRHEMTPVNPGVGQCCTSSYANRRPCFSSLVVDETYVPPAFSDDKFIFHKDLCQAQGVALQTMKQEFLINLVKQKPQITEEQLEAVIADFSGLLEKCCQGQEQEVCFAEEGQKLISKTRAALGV
Assay: electrochemical aptasensor (DPV, CV, EIS); toluidine blue, BSA-blocked PEI-AuNPs electrode; 50 ng/mL AFP lowers DPV current ca. 39 to 26 uA; 10 mM sodium phosphate buffer pH 7.0, 30 min incubation at room temperature; CV in 10 mM PBS pH 7.4 with 5 mM [Fe(CN)6]3-
Settings: protein: commercial

B1: AFP-specific aptamer (75-mer) (ssDNA)
DNA: GTGACGCTCCTAACGCTGACTCAGGTGCAGTTCTCGACTCGGTCTTGATGTGGGTCCTGTCCGTCCGAACCAATC
binding result: binds
